What all share (type): cell-based
Test [1] relates to Bovine embryonic fibroblasts (BEF). The test is described as follows: Cell cycle distribution (propidium iodide flow cytometry) of serum starved bovine embryonic fibroblasts. Particulars: for Proportion of cells going into G0, in words: addition during the starvation period; for G2/M (%) / S (%): serum starvation 5 days; for G2/M (%) / S (%) / G0/G1 (%): MAC 0.7 pM, NAC 1 mM, GSH 2 mM; for G0/G1 (%): serum starvation (0.5% FBS) 5 days. The method, then:
(§1) Bovine embryonic fibroblasts (BEF) were isolated from the fetus with 3-5 cm crown-rump length. After two or three passages, cells were plated one million cells per plate (100 mm) with growth medium (DMEM) with 2 mM L-glutamine, 0.1 mM β-mercaptoethanol and 10% FBS. After 24 hours, cells were washed with PBS 3-5 times and then serum starvation medium with 0.5% FBS was added. In addition, cells were treated with serum starvation medium containing apoptosis inhibitors such as a2-macroglobulin (0.7 pM), N-acetylcysteine (1 mM) and glutathione (2 mM). Cells were treated with serum starvation with or without apoptosis inhibitors for 5 or 10 days. Then cells were trypsinized and counted.
(§2) Cells (1×10^6) were washed in 0.15 M NaCI, fixed in 70% ethanol, and stored at −20° C. overnight or until ready to be analyzed. For analysis, cells were centrifuged, rinsed with PBS, resuspended in 500 μl of a 0.05 mg/ml propidium iodide/0.1% Triton X-100/0.2 mg/ml RNase A solution, and incubated for a minimum of 30 minutes at room temperature in the dark. Cells were analyzed by flow cytometry to determine DNA content. Modfit LT™ (Verity Software House, Topsham, Me.) was used to model the cell cycle distribution within each sample.

For test [2] the test system is unchanged. The test is described as follows: TUNEL assay (flow cytometry) of serum starved bovine embryonic fibroblasts. Particulars: MAC 0.7 pM, NAC 1 mM, GSH 2 mM; for 5-day Apoptosis (%): serum starvation 5 days, serum starved without inhibitor 15.0; for 10-day Apoptosis (%): serum starvation 10 days, serum starved without inhibitor 20.4. The method, then:
as §1
After counting, cells were fixed and stained according to protocols with the APO-BRDU kit (Phoenix Flow Systems, San Diego, Calif.). Briefly, cells were fixed in 1% paraformaldehyde in PBS on ice for 15 minutes, washed in PBS, and fixed in 70% ethanol and stored at −20° C. until use. After removing the fixative, cells were washed twice and suspended in 50 μl of labeling solution containing Br-dUTP (bromolated deoxyuridine triphosphate) and TdT (terminal deoxynucleotidyl transferase) for 60 minutes at 37° C. TdT catalyzes the addition of Br-dUTP to the 3′-OH ends of DNA strand breaks in a template independent manner. To determine base line fluorescence, control cells were incubated without TdT. After rinsing, cells were incubated with an anti-BrdU monoclonal antibody conjugated to fluorescein for 30 minutes in the dark at room temperature; apoptotic cells which contain many free 3′-OH ends are intensely labeled, while non-apoptotic cells whose DNA is largely intact have little Br-dUTP incorporation and remain unlabeled. Following counterstaining with a propidium iodide/RNase A solution for 30 minutes in the dark, which allows simultaneous analysis of cell cycle position and apoptosis, cells were analyzed on a FACSCalibur™ flow cytometer (Becton Dickinson, San Jose, Calif.). Fluorescence emissions were measured at 582±21 nm for propidium iodide and 530±15 nm for fluorescein, without spectral compensation, after excitation at 488 nm by an argon-ion laser. For analysis, gates were set so that less than 2% of samples incubated without TdT were positive. Any event above this gate was deemed TUNEL positive for samples incubated with TdT.
(In general: In flow cytometry, cells or beads pass a laser one at a time.)

Test [3] concerns Porcine embryonic fibroblast (PEF). The test can be described thus: Cell cycle distribution (propidium iodide flow cytometry) of serum starved porcine embryonic fibroblasts. The conditions noted are these: for Proportion of cells going into G0, in words: addition during the starvation period; for G0/G1 (%) / G2/M (%) / S (%): serum starvation 5 days, MAC 0.7 pM, NAC 1 mM, GSH 2 mM.
Text: Porcine embryonic fibroblast (PEF) were isolated from day 25-28 fetuses according to the methods previously described (Hogan et al., 1994). Briefly, porcine fetuses of day 25-30 (day 0=estrus) were removed from the uterus and rinsed with PBS+penicillin/streptomycin solution (PBS/PS). Head, limbs and internal organs were removed, and the carcasses were minced with razor blades or ground using a syringe head until they were the consistency of sludge. Then these were trypsinized 2-3 times using 0.25% trypsin+EDTA for 20 minutes. The supernatant fraction was removed and centrifuged to collect the cells. The cells were plated using DMEM+10% fetal bovine serum (FBS) and cultured up to 80-90% confluency before further passage.
as §1, §2

A further test deals with porcine PGCs. The test is described as follows: In vitro culture of porcine PGCs on STO feeder cells with apoptosis inhibitors; AP-stained colonies counted.
Where [4] appears, read: Table 3 combined effects study: MAC 0.7 pM, NAC 1.0 mM, alone or together, normalized to control.

Consider `CC(=O)N[C@@H](CS)C(=O)O` [NAC, N-acetylcysteine], for which, in test [1], the “Proportion of cells going into G0, in words” value (from here on “Proportion”) is listed as “did not affect the proportion of cells going into G0”; the “G2/M (%)” value is 10%; the “S (%)” value was 2%; the “G0/G1 (%)” value stood at 88%. Also, in test [2], the “5-day Apoptosis (%)” value worked out at 1.8% and the “10-day Apoptosis (%)” value was 1.1%. Besides, in test [3], the “Proportion” value is listed as “did not affect the proportion of cells going into G0”; the “G0/G1 (%)” value is recorded as 95%; the “G2/M (%)” value was 3%; the “S (%)” value was determined as 2%. The “Normalized # of Colonies + SE” value with porcine PGCs (setting [4]) is 2.73 ± 0.03.

B1: α2-macroglobulin (protein, UniProt P01023 24-1474, looked up)
Alpha-2-macroglobulin: SVSGKPQYMVLVPSLLHTETTEKGCVLLSYLNETVTVSASLESVRGNRSLFTDLEAENDVLHCVAFAVPKSSSNEEVMFLTVQVKGPTQEFKKRTTVMVKNEDSLVFVQTDKSIYKPGQTVKFRVVSMDENFHPLNELIPLVYIQDPKGNRIAQWQSFQLEGGLKQFSFPLSSEPFQGSYKVVVQKKSGGRTEHPFTVEEFVLPKFEVQVTVPKIITILEEEMNVSVCGLYTYGKPVPGHVTVSICRKYSDASDCHGEDSQAFCEKFSGQLNSHGCFYQQVKTKVFQLKRKEYEMKLHTEAQIQEEGTVVELTGRQSSEITRTITKLSFVKVDSHFRQGIPFFGQVRLVDGKGVPIPNKVIFIRGNEANYYSNATTDEHGLVQFSINTTNVMGTSLTVRVNYKDRSPCYGYQWVSEEHEEAHHTAYLVFSPSKSFVHLEPMSHELPCGHTQTVQAHYILNGGTLLGLKKLSFYYLIMAKGGIVRTGTHGLLVKQEDMKGHFSISIPVKSDIAPVARLLIYAVLPTGDVIGDSAKYDVENCLANKVDLSFSPSQSLPASHAHLRVTAAPQSVCALRAVDQSVLLMKPDAELSASSVYNLLPEKDLTGFPGPLNDQDNEDCINRHNVYINGITYTPVSSTNEKDMYSFLEDMGLKAFTNSKIRKPKMCPQLQQYEMHGPEGLRVGFYESDVMGRGHARLVHVEEPHTETVRKYFPETWIWDLVVVNSAGVAEVGVTVPDTITEWKAGAFCLSEDAGLGISSTASLRAFQPFFVELTMPYSVIRGEAFTLKATVLNYLPKCIRVSVQLEASPAFLAVPVEKEQAPHCICANGRQTVSWAVTPKSLGNVNFTVSAEALESQELCGTEVPSVPEHGRKDTVIKPLLVEPEGLEKETTFNSLLCPSGGEVSEELSLKLPPNVVEESARASVSVLGDILGSAMQNTQNLLQMPYGCGEQNMVLFAPNIYVLDYLNETQQLTPEIKSKAIGYLNTGYQRQLNYKHYDGSYSTFGERYGRNQGNTWLTAFVLKTFAQARAYIFIDEAHITQALIWLSQRQKDNGCFRSSGSLLNNAIKGGVEDEVTLSAYITIALLEIPLTVTHPVVRNALFCLESAWKTAQEGDHGSHVYTKALLAYAFALAGNQDKRKEVLKSLNEEAVKKDNSVHWERPQKPKAPVGHFYEPQAPSAEVEMTSYVLLAYLTAQPAPTSEDLTSATNIVKWITKQQNAQGGFSSTQDTVVALHALSKYGAATFTRTGKAAQVTIQSSGTFSSKFQVDNNNRLLLQQVSLPELPGEYSMKVTGEGCVYLQTSLKYNILPEKEEFPFALGVQTLPQTCDEPKAHTSFQISLSVSYTGSRSASNMAIVDVKMVSGFIPLKPTVKMLERSNHVSRTEVSSNHVLIYLDKVSNQTLSLFFTVLQDVPVRDLKPAIVKVYDYYETDEFAIAEYNAPCSKDLGNA
B1: in test [1], the “Proportion” value is “did not affect the proportion of cells going into G0”; the “G2/M (%)” value is given as 10%; the “S (%)” value turned out to be 5%; the “G0/G1 (%)” value is 85%. Besides, in test [2], the “5-day Apoptosis (%)” value was 3.9% and the “10-day Apoptosis (%)” value is given as 4.6%. For the same molecule, in test [3], the “Proportion” value is on record as “did not affect the proportion of cells going into G0”; the “G0/G1 (%)” value is on record as 95%; the “G2/M (%)” value is recorded as 4%; the “S (%)” value is reported as 1%. The “Normalized # of Colonies + SE” value with porcine PGCs (MAC (0.7 pM) 1-4 days (FH), Table 4 timing study) was determined as 1.21 ± 0.05. In the test with porcine PGCs (MAC (0.7 pM) 5-8 days (LH), Table 4 timing study), the “Normalized # of Colonies + SE” value was 1.23 ± 0.09. Also, the “Normalized # of Colonies + SE” value in the test with porcine PGCs (setting [4]) is recorded as 2.00 ± 0.18. In the test with porcine PGCs (Table 6 protease inhibitors: MAC 0.7 pM, PA 50 μM, AEBSF 250 μM, TLCK 100 μM, normalized to control), the “Normalized # of Colonies + SE” value was found to be 1.72 ± 0.15.
